The text below walks through data of publication PMC6076269, “Structure and nucleic acid binding properties of KOW domains 4 and 6–7 of human transcription elongation factor DSIF”.

For this series, the target named is hSpt5 KOW4 (S522-G647) (Homo sapiens, UniProt O00267 522-647). Kind of series: fluorescence anisotropy; 50 nM nucleic acid; Fluorescence anisotropy: 25 mM Tris/HCl pH 7.0, 50 mM NaCl, 25 C (buffer printed for duplex annealing, named fluorescence buffer); NMR with Rpb4/7 (Fig 7): 50 mM Na phosphate pH 7.0, 50 mM NaCl, 1 mM DTT, 298 K. To be noted: protein: recombinant, tags: His6-GB1 removed by TEV.

Setting [1] is: label: 5' 6-FAM on strand 1, blunt.

B1: dsDNA2 (dsDNA)
DNA 1: GAAAATTGGGTAAG
DNA 2: CTTACCCAATTTTC
On to B1, for which the Kd under setting [1] was found to be 41.2 ± 9 µM.
Consider GAAAATTGGGTAAG (ssDNA) [ssDNA2], for which the Kd (label: 5' 6-FAM) amounted to 24.5 ± 3.2 µM.
Same read-out and setting: with GGCGGUAGCGUG (ssRNA) [ssRNA] the figure was 39.5 ± 7.4 µM; with CTTATTGAATTA (ssDNA) [ssDNA1], 12.2 ± 0.6 µM.

B2: dsDNA1 (dsDNA)
DNA 1: CTTATTGAATTA
DNA 2: TAATTCAATAAG
For B2, the Kd under setting [1] is 20.1 ± 0.4 µM.
